The values below come from patent publication US20230340111A1 (published 2023).

Numbering of substitutions follows the chain as printed. In names and notes the source's numbering stands.

Assay [1] has as its target T1, human FOLR1 expressed on SKOV-3 ovarian carcinoma cells (human, UniProt P15328 25-234).
T1 construct: Naturally expressed receptor on SKOV-3 cells; also called human FOLR1pos SKOV-3 cancer cells; human FOLR1-expressing cell line SKOV-3
As to the kind of experiment: cellular retention on SKOV-3 cells: 10 nM 131I-VHH 1 h at 4 C, then up to 24 h at 37 C; membrane-bound plus internalized fraction. The protocol:
The in vitro cellular retention of the different His₆- and untagged ¹³¹I-labeled VHHs was assessed on the same cancer cells. In this particular case, human FOLR1^pos SKOV-3 cancer cells were incubated with 10 nM ¹³¹I-labelled VHHs for 1h at 4° C., after which the unbound fraction was collected. A 100-fold excess of the corresponding unlabeled VHH to assess non-specific binding. Next, the cells were incubated with fresh medium up to 24 h at 37° C., after which the dissociated fraction was collected. Afterwards, the cells were washed with 0.05 M glycine pH 2.8 to collect the membrane-bound fraction. Finally, cells were solubilized with 1 M NaOH at room temperature to collect the internalized fraction. The sum of the membrane-bound and internalized fractions corresponds to the total cell-associated fraction.

In assay [2] the target is T1, human FOLR1 expressed on SKOV-3 ovarian …. As to the kind of experiment: saturation binding of 131I-labelled His6-tagged VHH on SKOV-3 cells (0-300 nM); non-specific binding by 100-fold unlabelled VHH. The protocol: In a first part, their in vitro behaviour was assessed by means of investigating their cellular binding and retention over time. The binding potential of the resulting radioconjugates was assessed to confirm that this was not affected by the introduction of ¹³¹I-SGMIB into the amino acid sequence of the different VHHs. To this, human FOLR1^pos SKOV-3 cancer cells were incubated with serial dilutions with concentrations ranging from 0 to 300 nM of the different ¹³¹I-labelled, His₆ tagged VHHs. A 100-fold excess of the corresponding unlabeled VHH was added in parallel to saturate the human FOLR1 receptors expressed on cancer cells, to assess non-specific binding.

Assay [3] has the same target. Nature of the assay: saturation binding of 99mTc-labelled His6-tagged VHH on SKOV-3 cells (0-300 nM); non-specific binding by 100-fold unlabelled VHH. The protocol:
After quality control (> 95%), human FOLR1^pos SKOV-3 cancer cells were incubated with serial dilutions with concentrations ranging from 0 to 300 nM of the different ^99mTc-labelled VHHs. A 100-fold excess of the corresponding unlabeled VHH was added in parallel to saturate the human FOLR1 receptors expressed on cancer cells, to assess non-specific binding.

Assay [4] has as its target T2, human folate receptor gamma (FOLR3), recombinant (human, UniProt P41439 23-245, limits assumed).
T2 construct: extracellular domain; Bought protein; also called human FOLR3
Nature of the assay: ELISA, coated recombinant protein, HA-tagged VHH in bacterial extract. The procedure:
(§1) The day before, 0.1 µg recombinant protein at a concentration of 1 µg/mL in 100 mM NaHCO3, pH 8.2 was coated in a 96-well ELISA plate (Nunc MaxiSorp). Per VHH clone also a blank coated well was foreseen (only buffer). The wells were overcoated with protein-free T20 (PBS) blocking buffer (Pierce). After washing with PBS, pH7.4, 0.05% Tween, VHH-containing bacterial extract was added to every well. Binding of HA-tagged VHHs was detected by using mouse anti-HA.11 epitope tag (clone 16B12, Biolegend) as the primary Ab and goat anti-mouse IgG (whole molecule) alkaline phosphatase conjugate (Sigma-Aldrich) as the secondary Ab, with thorough washing with PBS, pH 7.4, 0.05% Tween in between. Signals were developed using phosphatase substrate (Sigma-Aldrich) in AP blot buffer (100 mM NaCl, 50 mM MgCl2, 100 mM Tris, pH 9.5). The absorbance was determined at 405 nm using an absorbance microplate reader (Molecular Devices). Per clone the ratio was determined between the absorbance in the antigen-coated well versus the well without antigen.
In general terms: ELISA stands for enzyme-linked immunosorbent assay.

For assay [5], the target named is T3, human folate receptor beta (FOLR2), extracellular domain, recombinant (human, UniProt P14207 17-228, limits assumed).
T3 construct: extracellular domain; Bought protein; also called human FOLR2
T3 sequence (P14207 17-228 limits assumed): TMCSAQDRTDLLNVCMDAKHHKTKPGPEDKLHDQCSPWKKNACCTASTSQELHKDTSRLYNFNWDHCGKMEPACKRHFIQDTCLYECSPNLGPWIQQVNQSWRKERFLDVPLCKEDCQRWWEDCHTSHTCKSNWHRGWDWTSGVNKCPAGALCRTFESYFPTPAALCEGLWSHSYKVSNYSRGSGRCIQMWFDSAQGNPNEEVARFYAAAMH
Described as above. The protocol:
as §1

Assay [6] concerns the target T2, human folate receptor gamma (FOLR3), …. As to the kind of experiment: ELISA; coated recombinant protein, HA-tagged VHH in bacterial extract, anti-HA detection; A405 antigen well / blank well. The procedure:
as §1

Assay [7] has as its target T3, human folate receptor beta (FOLR2), …. Described as above. The protocol:
as §1

For assay [8], the target named is human FOLR1 recombinant protein (extracellular domain of human folate receptor alpha) (human) (UniProt P15328). The description is as above.
human FOLR1 recombinant protein (extracellular domain of human folate receptor alpha) (human), sequence (P15328 25-233): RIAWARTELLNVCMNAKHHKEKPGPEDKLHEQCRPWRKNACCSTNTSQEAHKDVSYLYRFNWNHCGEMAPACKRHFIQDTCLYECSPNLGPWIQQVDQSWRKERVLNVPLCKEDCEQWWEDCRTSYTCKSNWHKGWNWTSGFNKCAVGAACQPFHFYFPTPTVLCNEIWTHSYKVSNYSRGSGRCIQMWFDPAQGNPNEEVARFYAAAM
Assay [9] deals with T4, human FOLR1 recombinant protein (extracellular domain of human folate receptor alpha) (human, UniProt P15328 25-233).
T4 construct: Bought recombinant protein (Sino Biological); also called hFOLR1; FR-alpha
T4 sequence (P15328 25-233): as above
As to the kind of experiment: SPR (Biacore T200), human FOLR1 immobilized on CM5, His6-tagged VHH as analyte, 1:1 fit. The protocol:
The kinetic parameters of antigen binding by purified VHHs were determined via surface plasmon resonance with a Biacore T200 instrument (GE Healthcare). The human FOLR1 recombinant protein (Sino Biological) was immobilized in 10 mM sodium acetate, pH 5.5 on a CM5 chip (GE Healthcare) via amine coupling chemistry to 500 RU. His₆-tagged VHHs were analyzed in a twofold serial dilution in HBS (125 nM-0.488 nM for VHHs A4 and A5; 10 nM-0.039 nM for VHHs A1, A2 and A3) with an analyte flow rate of 30 µl/min. The association phase took 180 s (A4-A5) or 450 s (A1-A3) and the dissociation phase 600 s (A4-A5) or 900 s (A1-A3). Regeneration was done by a single injection of 50 mM glycine-HCl, pH 2.5, 2 M MgCl₂ for 30 s at 30 µl/min, followed by 120 s stabilization. Binding curves were fitted using a ‘1:1 (antigen:analyte)’ binding model in Biacore T200 evaluation software.
(Surface plasmon resonance follows binding to a sensor surface in real time, without labels.)

Assay [10] addresses T4, human FOLR1 recombinant protein …. Nature of the assay: SPR dual injection on immobilized human FOLR1, 250 nM; competitor (1st VHH, saturating) A1; by the legend the value is of the 2nd VHH. The procedure:
(§2) Competitive binding characteristics of His₆-tagged VHHs were determined via surface plasmon resonance with a Biacore T200 instrument (GE Healthcare). Immobilization of human FOLR1 recombinant protein (Sino Biological) and regeneration were performed as described below for kinetic measurements.
(§3) Table 8: Side-by-side comparison of His₆-tagged VHHs A1, A2, A3, A4, A5 for binding to human FOLR1 to identify competitive binding characteristics. Binding was measured in surface plasmon resonance with immobilized human FOLR1 recombinant protein as the ligand. After saturation of the ligand with VHH 1 an equimolar mixture of VHH 1 and VHH 2 was injected. Percentages express the loss in response level of VHH 2, relative to the response when VHH 2 was injected alone.

For assay [11] the target is unchanged. As to the kind of experiment: SPR dual injection on immobilized human FOLR1, 250 nM; competitor (1st VHH, saturating) A3; by the legend the value is of the 2nd VHH. The protocol:
as §2, §3

For assay [12] the target is unchanged. Nature of the assay: SPR dual injection on immobilized human FOLR1, 250 nM; competitor (1st VHH, saturating) A5; by the legend the value is of the 2nd VHH. The procedure:
as §2, §3

Assay [13] has the same target. Nature of the assay: SPR dual injection on immobilized human FOLR1, 250 nM; competitor (1st VHH, saturating) A4; by the legend the value is of the 2nd VHH. The protocol:
as §2, §3

Assay [14] shares this target. Nature of the assay: SPR (Biacore T200), single cycle kinetics, His6-tagged VHH immobilized on CM5, human FOLR1 as analyte, 1:1 fit. The protocol: The kinetic parameters of antigen binding for purified VHHs A1, A2 and A3 were determined via surface plasmon resonance with a Biacore T200 instrument (GE Healthcare) using single cycle kinetics mode. While example 4d provides a first and preferred way of assessing the kinetic parameters of antigen binding for VHHs using surface plasmon resonance, this example provides an alternative setup for using surface plasmon resonance to assess the kinetic parameters of antigen binding, inverting the analyte and immobilized ligand. His₆-tagged VHH A1, A2 or A3 was immobilized in 10 mM sodium acetate, pH 5.5 on a CM5 chip (GE Healthcare) via amine coupling chemistry to 160 RU. The human FOLR1 recombinant protein (Sino Biological) was analyzed in a threefold serial dilution in HBS (38.5 nM-0.47 nM) with an analyte flow rate of 30 µl/min. The association phase took 180 s for every concentration and the dissociation phase 900 s. Regeneration was done by a single injection of 50 mM glycine-HCl, pH 2.5, 2 M MgCl2 for 30 s at 30 µl/min, followed by 120 s stabilization. Binding curves were fitted using a ‘1:1 (antigen:analyte)’ binding model in Biacore T200 evaluation software.

T1 sequence (P15328 25-234 limits assumed): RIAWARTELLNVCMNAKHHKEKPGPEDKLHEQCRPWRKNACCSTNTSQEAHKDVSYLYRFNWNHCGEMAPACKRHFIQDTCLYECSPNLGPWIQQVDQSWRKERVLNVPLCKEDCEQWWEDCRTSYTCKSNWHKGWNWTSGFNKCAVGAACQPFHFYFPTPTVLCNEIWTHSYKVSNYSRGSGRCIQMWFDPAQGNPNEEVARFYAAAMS
T2 sequence (P41439 23-245 limits assumed): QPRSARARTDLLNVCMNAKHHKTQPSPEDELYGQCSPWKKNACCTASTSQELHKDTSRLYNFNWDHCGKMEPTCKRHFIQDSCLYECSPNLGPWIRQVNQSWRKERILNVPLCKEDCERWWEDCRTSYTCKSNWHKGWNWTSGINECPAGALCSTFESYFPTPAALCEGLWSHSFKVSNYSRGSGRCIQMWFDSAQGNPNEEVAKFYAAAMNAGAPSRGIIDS

B1: 131I-labeled His6-tagged VHH A4 (VHH)
VHH: DVQLVESGGGLARAGGSLRLSCAASGRAFSSTYAMGWFRQAPGKEREFVADINWSEGSPMYIDSVKDRFTISRDNARNSLYLQMNSLKSEDTAVYYCAARRFGQGYEYWGQGTQVTVSS
modifications: [131I]SGMIB conjugated to lysine side-chain amine groups
As for B1, in assay [1], the “cell-associated fraction of initial bound activity after 24 h” value stood at 10%. The same molecule gave an EC50 in assay [2] of 5.8 nM.

B2: 99mTc-labeled His6-tagged VHH A1 (VHH)
VHH: DVQLVESGGGLVQPGGSLRLSCAASESIFSRNHMSWYRQAPGKQRELAAIITSDGNTNYPDSVKGRFTISRDNAKNTVYLQMNSLKPEDTAVYYCNTFGRSVAGFYDYWGQGTQVTVSS
modifications: [99mTc(H2O)3(CO)3] at the His6-tail
notes: also called 99mTc-A1; 99mTc-VHH A1
In assay [3], B2 displayed an EC50 of 1 nM.

B3: HA-tagged variant of VHH A2 (VHH)
VHH: QVQLQESGGGLVQAGGSLRLSCAADEMKFSNYDLAWYRRAPGKQRELAAIITSGGSTNYPDSVKGRFTISRDNAKNTVYLEMNSLKPEDTAVYYCNALRPWPQFSDYWGQGTQVTVSS
notes: Used as VHH-containing bacterial (periplasmic) extract in ELISA; also called A2 HA-tag
As for B3, the binding result in assay [4] and in [5] was “no binding” throughout. Also, the signal-to-background ratio in assay [6] is approximately 1; in assay [7], approximately 1; in [8], more than 20.

B4: 99mTc-labeled His6-tagged VHH A2 (VHH)
VHH: B3 VHH with Q1D, Q5V
modifications: [99mTc(H2O)3(CO)3] at the His6-tail
notes: also called 99mTc-A2; 99mTc-VHH A2
For the molecule B4, a half-maximal response in [3] (EC50) required 1.1 nM.

B5: His6-tagged variant of VHH A2 (VHH)
VHH: B3 VHH with Q1D, Q5V
notes: Purified, unlabelled; also called A2 His6-tag
Turning to B5, the Kd in [9] is 0.24 nM; in [14] it was 1.5 nM. In addition, the koff in [9] was 0.00033 s⁻¹; in assay [14], 0.00068 s⁻¹. In addition, the kon in [9] came out at 1.3e+06 M⁻¹ s⁻¹; in assay [14] it was 440000 M⁻¹ s⁻¹. Also, the “loss in response level of VHH 2 relative to VHH 2 injected alone” value is -96% in [10], -99% in [11], -86% in assay [12] and -96% in [13].

B6: His6-tagged variant of VHH A3 (VHH)
VHH: DVQLVESGGGLVQAGGSLRLSCGVSGNMFSMNLMGWYRQPPGKERDWVAVITKDGSTNYADSVKGRFTISRDNAKNTVSLQMNSLKPEDTAVYYCNVQDGSGWIRAWGWDWGQGTQVTVSS
notes: Purified, unlabelled; also called A3 His6-tag
On to B6, for which the Kd in assay [9] worked out at 0.92 nM; in assay [14], 1.9 nM. The results for the koff in assay [9] and in [14] were 0.0011 s⁻¹ and 0.00063 s⁻¹, respectively. The kon in assay [9] was 1.2e+06 M⁻¹ s⁻¹; in [14], 330000 M⁻¹ s⁻¹. Besides, the “loss in response level of VHH 2 relative to VHH 2 injected alone” value in assay [10] was -97%; in assay [12], -89%; in assay [13] it was -97%.

B7: 99mTc-labeled His6-tagged VHH A3 (VHH)
VHH: B6 VHH
modifications: [99mTc(H2O)3(CO)3] at the His6-tail
notes: also called 99mTc-A3
As for B7, it took 3.3 nM to reach a half-maximal effect in [3] (EC50). This counts as single-digit nanomolar.

B8: 131I-labeled His6-tagged VHH A3 (VHH)
VHH: B6 VHH
modifications: [131I]SGMIB conjugated to lysine side-chain amine groups
For B8, in [1], the “cell-associated fraction of initial bound activity after 24 h” value worked out at 20%. Also, in [2], it took 4.5 nM to reach a half-maximal effect (EC50).

In general, EC50 refers to the concentration that produces a half-maximal response. Lower therefore signals an effect from little substance. The Kd is the concentration at which binding is half-saturated. Usually koff stands for the first-order rate constant of dissociation. For orientation: kon means the second-order rate constant of association.
